US8642284B1, “Methods for identifying agents that alter NAD-dependent deacetylation activity of a SIR2 protein” (Massachusetts Institute of Technology, priority 1999, dated 2014)

The molecules below were run on histone H2B (assay: ADP-ribosylation activity of wild type and mutant recombinant mSir2α proteins on histones). Conditions: 10 μg recombinant protein; H2B radioactivity, wild type = 100%.
Assay type: biochemical, calf
Protocol: Site-directed mutagenesis of mSIR2α core domain was performed with the GeneEditor™ system (Promega, Madison, Wis.) according to the procedure provided by the manufacturer. The mutant recombinant proteins were prepared in the same way as described above.
The typical reaction was performed in 50 or 100 μl of the buffer containing 5 mM Tris-HCl [pH8.0 or 9.0], 4 mM MgCl2, 0.2 mM DTT, 1 μM cold β-NAD^+ (SIGMA®) and 8 μCi nicotinamide adenine dinucleotide 5′[α-^32P]triphosphate (NAD) as a donor of ADP-ribose (˜1000 Ci/mmol, Amersham Pharmacia Biotech). To check the sensitivity to poly- or mono-ADP-ribosylation inhibitors, 3-aminobenzamide (ICN Pharmaceuticals, CA), benzamide, novobiocin and coumermycin A1 (SIGMA®) were added to the reactions prior to adding Sir2 proteins, respectively. The wild type or mutant recombinant proteins (0.5-1 μg for ySir2p and 10 μg of mSir2α) were added with 4 μg of each histone purchased from Roche Molecular Biochemicals (Indianapolis, Ind.). For the peptide experiments, 5-10 μg of unacetylated or acetylated N-terminal tail peptides (amino acids 1-20) of H3 and H4 purchased from Upstate Biotechnology™ (Lake Placid, N.Y.) were used as substrates of the yeast and mouse Sir2 recombinant proteins.
To analyze histone modification, 25 μl of 100% trichloroacetic acid (TCA) solution was mixed to the reaction mixture and left on ice for 15 min. The protein precipitates were centrifuged at 4° C. and washed with 5 or 20% TCA solution twice. The pellets were dissolved in 15 μl of Leammli's sample buffer and boiled for 1.5 min. The proteins were electrophoresed in a 10-20% gradient SDS-PAGE gel. The gel was stained with COOMASSIE® Brilliant Blue R-250 (GibcoBRL Life Technologies™, Frederick, Md.) to check equal loading of histones, dried, and exposed to KODAK® X-OMAT film.
Aliquots of recombinant protein (10 μg) of the wild type recombinant mSir2α (WT), the pET control pET, and the mutant proteins (G253A, G255A, S257A, I262A, F265A, R266A, G270A, P285A, T336A, H355A) were incubated with H2B or H3. […] All of the mutations of highly conserved residues dramatically affected the mono-ADP-ribosylation activity of mSir2α (FIG. 6B). The results were similar using H2B or H3.
The radioactivity of H2B modified by the wild type is assigned to 100% and other data were normalized according to the wild type activity and blots quantitated by Phosphorimaging. The averages and the standard deviations were calculated from two independent experiments. In the core domain of ySir2p, mutations on highly conserved residues also affected the mono-ADP-ribosylation activity. Therefore, the core domain of Sir2 proteins contain the catalytic activity of mono-ADP-ribosylation and the evolutionarily conserved residues in the core domain are essential for this activity.

Row | Molecule | mono-ADP-ribosylation activity compared to the wild type activity
1 | P285A: recombinant mSir2α core domain mutant, residue changed to alanine (protein, left off: small tags and cut ends, recombinant mSir2α core domain mutant, residue changed to alanine) MADEVALALQAAGSPSAAAAMEAASQPADEPLRKRPRRDGPGLGRSPGEPSAAVAPAAAGCEAASAAAPAALWREAAGAAASAEREAPATAVAGDGDNGSGLRREPRAADDFDDDEGEEEDEAAAAAAAAAIGYRDNLLLTDGLLTNGFHSCESDDDDRTSHASSSDWTPRPRIGPYTFVQQHLMIGTDPRTILKDLLPETIPPPELDDMTLWQIVINILSEPPKRKKRKDINTIEDAVKLLQECKKIIVLTGAGVSVSCGIPDFRSRDGIYARLAVDFPDLPDAQAMFDIEYFRKDPRPFFKFAKEIYPGQFQPSLCHKFIALSDKEGKLLRNYTQNIDTLEQVAGIQRILQCHGSFATASCLICKYKVDCEAVRGDIFNQVVPRCPRCPADEPLAIMKPEIVFFGENLPEQFHRAMKYDKDEVDLLIVIGSSLKVRPVALIPSSIPHEVPQILINREPLPHLHFDVELLGDCDVIINELCHRLGGEYAKLCCNPVKLSEITEKPPRPQKELVHLSELPPTPLHISEDSSSPERTVPQDSSVIATLVDQATNNNVNDLEVSESSCVEEKPQEVQTSRNVENINVENPDFKAVGSSTADKNERTSVAETVRKCWPNRLAKEQISKRLEGNQYLFVPPNRYIFHGAEVYSDSEDDVLSSSSCGSNSDSGTCQSPSLEEPLEDESEIEEFYNGLEDDTERPECAGGSGFGADGGDQEVVNEAIATRQELTDVNYPSDKS | 5%
2 | G255A: recombinant mSir2α core domain mutant, residue changed to alanine (protein, left off: small tags and cut ends, recombinant mSir2α core domain mutant, residue changed to alanine) MADEVALALQAAGSPSAAAAMEAASQPADEPLRKRPRRDGPGLGRSPGEPSAAVAPAAAGCEAASAAAPAALWREAAGAAASAEREAPATAVAGDGDNGSGLRREPRAADDFDDDEGEEEDEAAAAAAAAAIGYRDNLLLTDGLLTNGFHSCESDDDDRTSHASSSDWTPRPRIGPYTFVQQHLMIGTDPRTILKDLLPETIPPPELDDMTLWQIVINILSEPPKRKKRKDINTIEDAVKLLQECKKIIVLTGAAVSVSCGIPDFRSRDGIYARLAVDFPDLPDPQAMFDIEYFRKDPRPFFKFAKEIYPGQFQPSLCHKFIALSDKEGKLLRNYTQNIDTLEQVAGIQRILQCHGSFATASCLICKYKVDCEAVRGDIFNQVVPRCPRCPADEPLAIMKPEIVFFGENLPEQFHRAMKYDKDEVDLLIVIGSSLKVRPVALIPSSIPHEVPQILINREPLPHLHFDVELLGDCDVIINELCHRLGGEYAKLCCNPVKLSEITEKPPRPQKELVHLSELPPTPLHISEDSSSPERTVPQDSSVIATLVDQATNNNVNDLEVSESSCVEEKPQEVQTSRNVENINVENPDFKAVGSSTADKNERTSVAETVRKCWPNRLAKEQISKRLEGNQYLFVPPNRYIFHGAEVYSDSEDDVLSSSSCGSNSDSGTCQSPSLEEPLEDESEIEEFYNGLEDDTERPECAGGSGFGADGGDQEVVNEAIATRQELTDVNYPSDKS | completely abolished the activity
3 | I262A: recombinant mSir2α core domain mutant, residue changed to alanine (protein, left off: small tags and cut ends, recombinant mSir2α core domain mutant, residue changed to alanine) MADEVALALQAAGSPSAAAAMEAASQPADEPLRKRPRRDGPGLGRSPGEPSAAVAPAAAGCEAASAAAPAALWREAAGAAASAEREAPATAVAGDGDNGSGLRREPRAADDFDDDEGEEEDEAAAAAAAAAIGYRDNLLLTDGLLTNGFHSCESDDDDRTSHASSSDWTPRPRIGPYTFVQQHLMIGTDPRTILKDLLPETIPPPELDDMTLWQIVINILSEPPKRKKRKDINTIEDAVKLLQECKKIIVLTGAGVSVSCGAPDFRSRDGIYARLAVDFPDLPDPQAMFDIEYFRKDPRPFFKFAKEIYPGQFQPSLCHKFIALSDKEGKLLRNYTQNIDTLEQVAGIQRILQCHGSFATASCLICKYKVDCEAVRGDIFNQVVPRCPRCPADEPLAIMKPEIVFFGENLPEQFHRAMKYDKDEVDLLIVIGSSLKVRPVALIPSSIPHEVPQILINREPLPHLHFDVELLGDCDVIINELCHRLGGEYAKLCCNPVKLSEITEKPPRPQKELVHLSELPPTPLHISEDSSSPERTVPQDSSVIATLVDQATNNNVNDLEVSESSCVEEKPQEVQTSRNVENINVENPDFKAVGSSTADKNERTSVAETVRKCWPNRLAKEQISKRLEGNQYLFVPPNRYIFHGAEVYSDSEDDVLSSSSCGSNSDSGTCQSPSLEEPLEDESEIEEFYNGLEDDTERPECAGGSGFGADGGDQEVVNEAIATRQELTDVNYPSDKS | completely abolished the activity
4 | S257A: recombinant mSir2α core domain mutant, residue changed to alanine (protein, left off: small tags and cut ends, recombinant mSir2α core domain mutant, residue changed to alanine) MADEVALALQAAGSPSAAAAMEAASQPADEPLRKRPRRDGPGLGRSPGEPSAAVAPAAAGCEAASAAAPAALWREAAGAAASAEREAPATAVAGDGDNGSGLRREPRAADDFDDDEGEEEDEAAAAAAAAAIGYRDNLLLTDGLLTNGFHSCESDDDDRTSHASSSDWTPRPRIGPYTFVQQHLMIGTDPRTILKDLLPETIPPPELDDMTLWQIVINILSEPPKRKKRKDINTIEDAVKLLQECKKIIVLTGAGVAVSCGIPDFRSRDGIYARLAVDFPDLPDPQAMFDIEYFRKDPRPFFKFAKEIYPGQFQPSLCHKFIALSDKEGKLLRNYTQNIDTLEQVAGIQRILQCHGSFATASCLICKYKVDCEAVRGDIFNQVVPRCPRCPADEPLAIMKPEIVFFGENLPEQFHRAMKYDKDEVDLLIVIGSSLKVRPVALIPSSIPHEVPQILINREPLPHLHFDVELLGDCDVIINELCHRLGGEYAKLCCNPVKLSEITEKPPRPQKELVHLSELPPTPLHISEDSSSPERTVPQDSSVIATLVDQATNNNVNDLEVSESSCVEEKPQEVQTSRNVENINVENPDFKAVGSSTADKNERTSVAETVRKCWPNRLAKEQISKRLEGNQYLFVPPNRYIFHGAEVYSDSEDDVLSSSSCGSNSDSGTCQSPSLEEPLEDESEIEEFYNGLEDDTERPECAGGSGFGADGGDQEVVNEAIATRQELTDVNYPSDKS | completely abolished the activity
5 | G253A: recombinant mSir2α core domain mutant, glycine 253 changed to alanine (protein, left off: small tags and cut ends, recombinant mSir2α core domain mutant, glycine 253 changed to alanine) MADEVALALQAAGSPSAAAAMEAASQPADEPLRKRPRRDGPGLGRSPGEPSAAVAPAAAGCEAASAAAPAALWREAAGAAASAEREAPATAVAGDGDNGSGLRREPRAADDFDDDEGEEEDEAAAAAAAAAIGYRDNLLLTDGLLTNGFHSCESDDDDRTSHASSSDWTPRPRIGPYTFVQQHLMIGTDPRTILKDLLPETIPPPELDDMTLWQIVINILSEPPKRKKRKDINTIEDAVKLLQECKKIIVLTAAGVSVSCGIPDFRSRDGIYARLAVDFPDLPDPQAMFDIEYFRKDPRPFFKFAKEIYPGQFQPSLCHKFIALSDKEGKLLRNYTQNIDTLEQVAGIQRILQCHGSFATASCLICKYKVDCEAVRGDIFNQVVPRCPRCPADEPLAIMKPEIVFFGENLPEQFHRAMKYDKDEVDLLIVIGSSLKVRPVALIPSSIPHEVPQILINREPLPHLHFDVELLGDCDVIINELCHRLGGEYAKLCCNPVKLSEITEKPPRPQKELVHLSELPPTPLHISEDSSSPERTVPQDSSVIATLVDQATNNNVNDLEVSESSCVEEKPQEVQTSRNVENINVENPDFKAVGSSTADKNERTSVAETVRKCWPNRLAKEQISKRLEGNQYLFVPPNRYIFHGAEVYSDSEDDVLSSSSCGSNSDSGTCQSPSLEEPLEDESEIEEFYNGLEDDTERPECAGGSGFGADGGDQEVVNEAIATRQELTDVNYPSDKS | completely abolished the activity
